Measurements: patent publication US20230002496A1 (STAIDSON BEIJING BIOPHARMACEUTICALS, published 2023)
Changes are numbered by the printed parent chain. One block for each binder: values may come before it.

Target: T1, human GM-CSFRα, full length on cells (human, UniProt P15509 23-400)
T1 sequence: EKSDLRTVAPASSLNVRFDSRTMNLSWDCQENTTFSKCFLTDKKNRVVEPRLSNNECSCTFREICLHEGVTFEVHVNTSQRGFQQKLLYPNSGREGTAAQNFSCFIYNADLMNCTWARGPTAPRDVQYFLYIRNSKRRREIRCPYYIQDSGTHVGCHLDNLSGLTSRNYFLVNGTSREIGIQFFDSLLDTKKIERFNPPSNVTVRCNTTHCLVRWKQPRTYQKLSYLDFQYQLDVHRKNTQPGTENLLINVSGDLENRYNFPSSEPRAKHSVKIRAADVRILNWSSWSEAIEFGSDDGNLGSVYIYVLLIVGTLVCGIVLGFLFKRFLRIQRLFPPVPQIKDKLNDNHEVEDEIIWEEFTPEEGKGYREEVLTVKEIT
Experiment: cell-based or functional assay

B1: E35-scFv LS30L (scFv, V domains shown)
VH: QMQLVQSGAEVKKPGASVKVSCKVSGYTLTELSIHWVRQAPGKGLEWMGGFDPEDGETIYAQKFQGRVTMTGDTSTDTAYLELSSLRSEDTALYYCATGRYTSLATTYGFDYWGQGTLVTVSS
VL: EIVMTQSPATLSLSPGERATLSCRASQSVLSYLAWYQQKPGQAPRLLIYGASSRATGIPDRFSGSGSGTDFTLTISRLEPEDFAVYYCQQYDNWPYTFGQGTKLEIK
IC50, TF-1 cell proliferation: 0.069 µg/mL

B3: E35-scFv LS52R (scFv, V domains shown)
VH: B1 VH
VL: B1 VL with L30S, S52R
IC50, TF-1 cell proliferation: 0.089 µg/mL

B4: E35-scFv LS30K (scFv, V domains shown)
VH: B1 VH
VL: B1 VL with L30K
IC50, TF-1 cell proliferation: 0.083 µg/mL

B6: E35-scFv LS52L (scFv, V domains shown)
VH: B1 VH
VL: B1 VL with L30S, S52L
IC50, TF-1 cell proliferation: 0.115 µg/mL

B7: E35-scFv LS30M (scFv, V domains shown)
VH: B1 VH
VL: B1 VL with L30M
IC50, TF-1 cell proliferation: 0.073 µg/mL

B10: E35-scFv LS30N (scFv, V domains shown)
VH: B1 VH
VL: B1 VL with L30N
IC50, TF-1 cell proliferation: 0.132 µg/mL

B11: E35-scFv LS30G (scFv, V domains shown)
VH: B1 VH
VL: B1 VL with L30G
IC50, TF-1 cell proliferation: 0.092 µg/mL

B13: E35-scFv LS52T (scFv, V domains shown)
VH: B1 VH
VL: B1 VL with L30S, S52T
IC50, TF-1 cell proliferation: 0.136 µg/mL

B14: E35-scFv LA51R (scFv, V domains shown)
VH: B1 VH
VL: B1 VL with L30S, A51R
IC50, TF-1 cell proliferation: 0.12 µg/mL

B15: E35-scFv LS52F (scFv, V domains shown)
VH: B1 VH
VL: B1 VL with L30S, S52F
IC50, TF-1 cell proliferation: 0.167 µg/mL

B16: E35-scFv LS30V (scFv, V domains shown)
VH: B1 VH
VL: B1 VL with L30V
IC50, TF-1 cell proliferation: 0.124 µg/mL

B17: E35-scFv LA51H (scFv, V domains shown)
VH: B1 VH
VL: B1 VL with L30S, A51H
IC50, TF-1 cell proliferation: 0.162 µg/mL

B20: E35-scFv LS52N (scFv, V domains shown)
VH: B1 VH
VL: B1 VL with L30S, S52N
IC50, TF-1 cell proliferation: 0.253 µg/mL

B22: E35-scFv LS30F (scFv, V domains shown)
VH: B1 VH
VL: B1 VL with L30F
IC50, TF-1 cell proliferation: 0.16 µg/mL

B25: E35-scFv LS52Q (scFv, V domains shown)
VH: B1 VH
VL: B1 VL with L30S, S52Q
IC50, TF-1 cell proliferation: 0.138 µg/mL

B26: E35-scFv LS30R (scFv, V domains shown)
VH: B1 VH
VL: B1 VL with L30R
IC50, TF-1 cell proliferation: 0.088 µg/mL

B27: E35-scFv LS30A (scFv, V domains shown)
VH: B1 VH
VL: B1 VL with L30A
IC50, TF-1 cell proliferation: 0.078 µg/mL

B29: E35-scFv LS30T (scFv, V domains shown)
VH: B1 VH
VL: B1 VL with L30T
IC50, TF-1 cell proliferation: 0.092 µg/mL

B30: E35-scFv LS30W (scFv, V domains shown)
VH: B1 VH
VL: B1 VL with L30W
IC50, TF-1 cell proliferation: 0.071 µg/mL

B32: E35-scFv LS52D (scFv, V domains shown)
VH: B1 VH
VL: B1 VL with L30S, S52D
IC50, TF-1 cell proliferation: 1.75 µg/mL

B35: E35-scFv LS30Y (scFv, V domains shown)
VH: B1 VH
VL: B1 VL with L30Y
IC50, TF-1 cell proliferation: 0.082 µg/mL

B36: E35-scFv LS52H (scFv, V domains shown)
VH: B1 VH
VL: B1 VL with L30S, S52H
IC50, TF-1 cell proliferation: 0.192 µg/mL

B38: E35-scFv LS52A (scFv, V domains shown)
VH: B1 VH
VL: B1 VL with L30S, S52A
IC50, TF-1 cell proliferation: 0.068 µg/mL

B40: E35-scFv LA51G (scFv, V domains shown)
VH: B1 VH
VL: B1 VL with L30S, A51G
IC50, TF-1 cell proliferation: 0.12 µg/mL

B42: E35-scFv LS30E (scFv, V domains shown)
VH: B1 VH
VL: B1 VL with L30E
IC50, TF-1 cell proliferation: 0.1 µg/mL

B43: E35-scFv LS30C (scFv, V domains shown)
VH: B1 VH
VL: B1 VL with L30C
IC50, TF-1 cell proliferation: 0.221 µg/mL

B44: E35-scFv LS52P (scFv, V domains shown)
VH: B1 VH
VL: B1 VL with L30S, S52P
IC50, TF-1 cell proliferation: 1.05 µg/mL

The remaining lines, values ahead:

IC50, TF-1 cell proliferation: 1.17 µg/mL
B2: E35-scFv LY32W (scFv, V domains shown)
VH: B1 VH
VL: B1 VL with L30S, Y32W

IC50, TF-1 cell proliferation: 0.51 µg/mL
B5: E35-scFv LY32T (scFv, V domains shown)
VH: B1 VH
VL: B1 VL with L30S, Y32T

IC50, TF-1 cell proliferation: 0.073 µg/mL
B8: E35-scFv LS52W (scFv, V domains shown)
VH: B1 VH
VL: B1 VL with L30S, S52W

IC50, TF-1 cell proliferation: 1.35 µg/mL
B9: E35-scFv LY32A (scFv, V domains shown)
VH: B1 VH
VL: B1 VL with L30S, Y32A

IC50, TF-1 cell proliferation: 1.9 µg/mL
B12: E35-scFv LY32C (scFv, V domains shown)
VH: B1 VH
VL: B1 VL with L30S, Y32C

IC50, TF-1 cell proliferation: 1.23 µg/mL
B18: E35-scFv LY32V (scFv, V domains shown)
VH: B1 VH
VL: B1 VL with L30S, Y32V

IC50, TF-1 cell proliferation: 2.05 µg/mL
B19: E35-scFv LY32N (scFv, V domains shown)
VH: B1 VH
VL: B1 VL with L30S, Y32N

IC50, TF-1 cell proliferation: 0.07 µg/mL
B21: E35-scFv LY32L (scFv, V domains shown)
VH: B1 VH
VL: B1 VL with L30S, Y32L

IC50, TF-1 cell proliferation: 3.75 µg/mL
B23: E35-scFv LY32E (scFv, V domains shown)
VH: B1 VH
VL: B1 VL with L30S, Y32E

IC50, TF-1 cell proliferation: 0.42 µg/mL
B24: E35-scFv LY32M (scFv, V domains shown)
VH: B1 VH
VL: B1 VL with L30S, Y32M

IC50, TF-1 cell proliferation: 5.15 µg/mL
B28: E35-scFv LY32P (scFv, V domains shown)
VH: B1 VH
VL: B1 VL with L30S, Y32P

IC50, TF-1 cell proliferation: 0.87 µg/mL
B31: E35-scFv LY32Q (scFv, V domains shown)
VH: B1 VH
VL: B1 VL with L30S, Y32Q

IC50, TF-1 cell proliferation: 9.6 µg/mL
B33: E35-scFv LY32K (scFv, V domains shown)
VH: B1 VH
VL: B1 VL with L30S, Y32K

IC50, TF-1 cell proliferation: 0.21 µg/mL
B34: E35-scFv LY32F (scFv, V domains shown)
VH: B1 VH
VL: B1 VL with L30S, Y32F

IC50, TF-1 cell proliferation: 0.181 µg/mL
B37: E35-scFv LS52Y (scFv, V domains shown)
VH: B1 VH
VL: B1 VL with L30S, S52Y

IC50, TF-1 cell proliferation: 1.35 µg/mL
B39: E35-scFv LY32G (scFv, V domains shown)
VH: B1 VH
VL: B1 VL with L30S, Y32G

IC50, TF-1 cell proliferation: 3.12 µg/mL
B41: E35-scFv LY32R (scFv, V domains shown)
VH: B1 VH
VL: B1 VL with L30S, Y32R
